Test results as given in paper PMC4866688, “Trypanosoma brucei DHFR-TS Revisited: Characterisation of a Bifunctional and Highly Unstable Recombinant Dihydrofolate Reductase-Thymidylate Synthase” (PLoS Neglected Tropical Diseases, 2016).

Molecular target: the molecule itself
Test: SEC; Superdex 200 column, Bio-Rad gel filtration standards; purified cleaved enzyme, DHFR activity and absorbance at 280 nm followed

B1: Trypanosoma brucei dihydrofolate reductase-thymidylate synthase, Tsf tag removed with TEV protease (enzyme, UniProt Q27783 1-527, looked up)
chain: MLSLTRILRKKIPVHELAGKISRPPLRPFSVVVASDEKGGIGDGGTIPWEIPEDMQYFRRVTTNLRGKNVKPSPSKRNAVVMGRKTWDSLPPKFRPLSNRLNVVLSRSATKEQLLAGIPDPIKRAEAANDVVAVNGGLEDALRMLVSKEHTSSIETVFCIGGGTIYKQALCAPCVNVLQAIHRTVVRPASNSCSVFFDIPAAGTKTPEGLELVRESITDERVSTGAGGKKYQFEKLVPRNSEEEQYLNLVGRIIDEGCTKCDRTGVGTRSLFGAQMRFSLRNNRLPLLTTKRVFWRGVCEELLWFLRGETNAKLLSDKGIHIWDGNGSRAFLDSRGLTDYDEMDLGPVYGFQWRHFGADYISCKVDSEGKGVDQIANIVKSLIENPDDRRMICTAWNPAALPRMALPPCHMMAQFYVSNGELSCMLYQRSCDMGLGVPFNIASYALLTFLMAKASGLRPGELVHTLGDAHVYSNHVEPCRKQLKRVPRPFPFIVFKQDKEFLEDFQESDIEVIDYSPYPVISMEMAV
notes: bifunctional dihydrofolate reductase-thymidylate synthase of Trypanosoma brucei strain 427; N-terminal DHFR domain (ends at Arg 239), linker, C-terminal TS domain; also called TbDHFR-TS; cleaved TbDHFR-TS; not shown: Tsf (E. coli elongation factor Ts), N-terminal, cleaved; His6, internal (between Tsf and the TEV site), cleaved
  stoichiometry N: 2
